How the values were obtained:
[1] = test system: DSBs in human or rodent cell lines (U2OS, HEK-293, MCF-7, HCT116, WI83, IMR90, MEF); test: TUNEL assay for DSB induction in vivo; type: cell-based
Method: […] was assayed with terminal deoxynucleotidyl transferase (TdT) dUTP-FITC, in a TUNEL reaction (In Situ Cell Death Detection Kit, Roche Diagnostic, Mannheim Germany) which marks DSBs in vivo. The assay was done after fixation of the cells in 4% paraformaldehyde in PBS, 0.1% Triton. After the TUNEL reaction the cells are counter-stained with propidium J. The use of derivatives impaired in the nuclease activity like the construct SC34 as a negative control, allows to estimate background activities. […] This aspect makes the system described in the invention by far more efficient as compared to endonucleases induced from transcriptional units or compared to any of the other type of protein transfection like electroporation, or precipitations with calcium phosphate or libid-derivatives i.e. lipofectin.

V3 (DNA-PKcs−/−) cells = test: Clonogenic assay of CHO cells mutated in NHEJ; type: cell-based, rodent; details: 100 nM, 24 hours, grown 7-10 days (FIG. 9 black bar)
Method: Clonogenic assay of CHO cells that were mutated for proteins involved in the NHEJ repair-pathway treated with [sequence]. The cell lines used are AA8 (parental line), V3 (DNA-PCCS^(−/−)), xrss5 (KU80^(−/−)) and XR-1 (XRCC4^(−/−)), HIS P1.13-11 (KU70^(−/−)) and the corresponding parental cell line CHO-K1. Various dilutions of the CHO cells containing the NHEJ mutations as indicated were treated for 24 hours with [sequence] (25 nM, grey bars; 100 nM, black bars) or not treated (white bars); the cells were washed and then grown for 7-10 days, stained with GIEMSA and colonies were counted.
Moreover these NHEJ mutant cells were tested with [sequence] in clonogenic, colony-outgrowth assays that were assayed after a single addition of [sequence] for 12 hours at a concentration of 10 nM (grey bars) or at a concentration of 75 nM (black bars) or without protein treatment (not treated, white bars). Seven to ten days after addition, cell growth was analysed by staining with GIEMSA-blue and quantification of diverse cell-concentrations. […] The multiwell-microtiter-plates (for an example see FIG. 13A) were scanned using the VersaDOC® (BioRad) imaging system and growth was automatically quantified with the software package Quantify One® for the analysis of the microtiter-plates (microtiter-plates scanning software).

[2] = test system: MRC-5 cells (ATM positive control); test: Colony forming assay; type: cell-based; details: 60 minutes treatment, 25 nM or 100 nM
Method: (§1) FIG. 8. Induction of Cell Cycle Block and Clonogenic Activity by […] of Cells Mutated for ATM (AT-5) in Comparison to Non Mutated Cells (MRC-5). • A) Distribution of DNA content distribution during the cell cycle detected by FACS analysis of AT-5 cells after 36 hours of […] treatment (25 nM, 100 nM), or with adriamycin (0.02 μg/ml; ADRIAMYCIN), or with SC34 (100 nM), and as control from non treated cells. The histograms represent DNA content relative to the cell-numbers; the panel on the right indicates the percentage of the corresponding distributions of the various cell cycle phases as calculated with the MODFIT™ program-package. • B) Colony forming assay with cell lines mutated for ATM and induced for DNA damage by […].
(§2) The cell cycle response to DSB's induced by […] treatment were analysed in p53 positive or negative cells. […] Incubation for 36 hours of the cell lines mutated for ATM (AT-5) with […] results in a transient retardation of the cell cycle, as was determined by a DNA content FACS analysis. […] A single addition of […] for 60 minutes to the AT-5 cells was sufficient to induce cell cycle stop after 24 hours (FIG. 8A) and finally leads to cell death, obtained from not correctly ligated DNA, and consequently, the clonogenic activity after a single treatment with […] for 60 minutes was below 0.02% for AT-5 cells. […] In addition, the cells were incubated with adriamycin as a control.

[3] = test system: AT-5 cells (mutated for ATM); test: Colony forming assay; type: cell-based
Method: as §1, §2

B1: SCPVUTAT: single chain PvuII endonuclease (aa 1-157, GSGG linker, aa 2-157) fused to HIV Tat peptide and six histidine tag; SEQ ID NO:2 (protein, listed as Proteus vulgaris)
chain: MSHPDLNKLLELWPHIQEYQDLALKHGINDIFQDNGGKLLQVLLITGLTVLPGREGNDAVDNAGQEYELKSINIDLTKGFSTHHHMNPVIIAKYRQVPWIFAIYRGIAIEAIYRLEPKDLEFYYDKWERKWYSDGHKDINNPKIPVKYVMEHGTKIYGSGGSHPDLNKLLELWPHIQEYQDLALKHGINDIFQDNGGKLLQVLLITGLTVLPGREGNDAVDNAGQEYELKSINIDLTKGFSTHHHMNPVIIAKYRQVPWIFAIYRGIAIEAIYRLEPKDLEFYYDKWERKWYSDGHKDINNPKIPVKYVMEHGTKIYGSYGRKKRRQRRRGGSHHHHHH
For B1, the TUNEL positive cells ([1]; 10 minutes after treatment, all cell types tested) was 90-100%, the TUNEL activity ([1]; few minutes of treatment, concentration in culture supernatant as low as 10 nM) was “significant TUNEL activity in most of the cells” and the “colonies relative to non treated cells (100%)” value (V3 (DNA-PKcs−/−) cells) was “below 1%”. The “sensitivity in colony forming assay compared to AT-5” value [2] was “less sensitive”, the “colonies relative to non treated cells (100%)” value ([3]; 100 nM, 60 minutes, grown 7-10 days (FIG. 8B black bar)) was ~0% and the clonogenic activity ([3]; single treatment for 60 minutes) was “below 0.02%”.
